Consider two molecules from article PMC11228480 (Proceedings of the National Academy of Sciences of the …, 2024).

The target of data set [1] is T1, ryanodine receptor type 1 (RyR1), endogenous, purified from mouse skeletal muscle (mouse, UniProt E9PZQ0 1-5035). Put plainly: pull-down.
The target of data set [2] is T1, ryanodine receptor type 1 (RyR1), …. Put plainly: cryo-EM structure.
The data set “cryo-EM structure” concerns the molecule itself. Put plainly: cryo-EM structure.

T1 sequence (E9PZQ0 whole entry): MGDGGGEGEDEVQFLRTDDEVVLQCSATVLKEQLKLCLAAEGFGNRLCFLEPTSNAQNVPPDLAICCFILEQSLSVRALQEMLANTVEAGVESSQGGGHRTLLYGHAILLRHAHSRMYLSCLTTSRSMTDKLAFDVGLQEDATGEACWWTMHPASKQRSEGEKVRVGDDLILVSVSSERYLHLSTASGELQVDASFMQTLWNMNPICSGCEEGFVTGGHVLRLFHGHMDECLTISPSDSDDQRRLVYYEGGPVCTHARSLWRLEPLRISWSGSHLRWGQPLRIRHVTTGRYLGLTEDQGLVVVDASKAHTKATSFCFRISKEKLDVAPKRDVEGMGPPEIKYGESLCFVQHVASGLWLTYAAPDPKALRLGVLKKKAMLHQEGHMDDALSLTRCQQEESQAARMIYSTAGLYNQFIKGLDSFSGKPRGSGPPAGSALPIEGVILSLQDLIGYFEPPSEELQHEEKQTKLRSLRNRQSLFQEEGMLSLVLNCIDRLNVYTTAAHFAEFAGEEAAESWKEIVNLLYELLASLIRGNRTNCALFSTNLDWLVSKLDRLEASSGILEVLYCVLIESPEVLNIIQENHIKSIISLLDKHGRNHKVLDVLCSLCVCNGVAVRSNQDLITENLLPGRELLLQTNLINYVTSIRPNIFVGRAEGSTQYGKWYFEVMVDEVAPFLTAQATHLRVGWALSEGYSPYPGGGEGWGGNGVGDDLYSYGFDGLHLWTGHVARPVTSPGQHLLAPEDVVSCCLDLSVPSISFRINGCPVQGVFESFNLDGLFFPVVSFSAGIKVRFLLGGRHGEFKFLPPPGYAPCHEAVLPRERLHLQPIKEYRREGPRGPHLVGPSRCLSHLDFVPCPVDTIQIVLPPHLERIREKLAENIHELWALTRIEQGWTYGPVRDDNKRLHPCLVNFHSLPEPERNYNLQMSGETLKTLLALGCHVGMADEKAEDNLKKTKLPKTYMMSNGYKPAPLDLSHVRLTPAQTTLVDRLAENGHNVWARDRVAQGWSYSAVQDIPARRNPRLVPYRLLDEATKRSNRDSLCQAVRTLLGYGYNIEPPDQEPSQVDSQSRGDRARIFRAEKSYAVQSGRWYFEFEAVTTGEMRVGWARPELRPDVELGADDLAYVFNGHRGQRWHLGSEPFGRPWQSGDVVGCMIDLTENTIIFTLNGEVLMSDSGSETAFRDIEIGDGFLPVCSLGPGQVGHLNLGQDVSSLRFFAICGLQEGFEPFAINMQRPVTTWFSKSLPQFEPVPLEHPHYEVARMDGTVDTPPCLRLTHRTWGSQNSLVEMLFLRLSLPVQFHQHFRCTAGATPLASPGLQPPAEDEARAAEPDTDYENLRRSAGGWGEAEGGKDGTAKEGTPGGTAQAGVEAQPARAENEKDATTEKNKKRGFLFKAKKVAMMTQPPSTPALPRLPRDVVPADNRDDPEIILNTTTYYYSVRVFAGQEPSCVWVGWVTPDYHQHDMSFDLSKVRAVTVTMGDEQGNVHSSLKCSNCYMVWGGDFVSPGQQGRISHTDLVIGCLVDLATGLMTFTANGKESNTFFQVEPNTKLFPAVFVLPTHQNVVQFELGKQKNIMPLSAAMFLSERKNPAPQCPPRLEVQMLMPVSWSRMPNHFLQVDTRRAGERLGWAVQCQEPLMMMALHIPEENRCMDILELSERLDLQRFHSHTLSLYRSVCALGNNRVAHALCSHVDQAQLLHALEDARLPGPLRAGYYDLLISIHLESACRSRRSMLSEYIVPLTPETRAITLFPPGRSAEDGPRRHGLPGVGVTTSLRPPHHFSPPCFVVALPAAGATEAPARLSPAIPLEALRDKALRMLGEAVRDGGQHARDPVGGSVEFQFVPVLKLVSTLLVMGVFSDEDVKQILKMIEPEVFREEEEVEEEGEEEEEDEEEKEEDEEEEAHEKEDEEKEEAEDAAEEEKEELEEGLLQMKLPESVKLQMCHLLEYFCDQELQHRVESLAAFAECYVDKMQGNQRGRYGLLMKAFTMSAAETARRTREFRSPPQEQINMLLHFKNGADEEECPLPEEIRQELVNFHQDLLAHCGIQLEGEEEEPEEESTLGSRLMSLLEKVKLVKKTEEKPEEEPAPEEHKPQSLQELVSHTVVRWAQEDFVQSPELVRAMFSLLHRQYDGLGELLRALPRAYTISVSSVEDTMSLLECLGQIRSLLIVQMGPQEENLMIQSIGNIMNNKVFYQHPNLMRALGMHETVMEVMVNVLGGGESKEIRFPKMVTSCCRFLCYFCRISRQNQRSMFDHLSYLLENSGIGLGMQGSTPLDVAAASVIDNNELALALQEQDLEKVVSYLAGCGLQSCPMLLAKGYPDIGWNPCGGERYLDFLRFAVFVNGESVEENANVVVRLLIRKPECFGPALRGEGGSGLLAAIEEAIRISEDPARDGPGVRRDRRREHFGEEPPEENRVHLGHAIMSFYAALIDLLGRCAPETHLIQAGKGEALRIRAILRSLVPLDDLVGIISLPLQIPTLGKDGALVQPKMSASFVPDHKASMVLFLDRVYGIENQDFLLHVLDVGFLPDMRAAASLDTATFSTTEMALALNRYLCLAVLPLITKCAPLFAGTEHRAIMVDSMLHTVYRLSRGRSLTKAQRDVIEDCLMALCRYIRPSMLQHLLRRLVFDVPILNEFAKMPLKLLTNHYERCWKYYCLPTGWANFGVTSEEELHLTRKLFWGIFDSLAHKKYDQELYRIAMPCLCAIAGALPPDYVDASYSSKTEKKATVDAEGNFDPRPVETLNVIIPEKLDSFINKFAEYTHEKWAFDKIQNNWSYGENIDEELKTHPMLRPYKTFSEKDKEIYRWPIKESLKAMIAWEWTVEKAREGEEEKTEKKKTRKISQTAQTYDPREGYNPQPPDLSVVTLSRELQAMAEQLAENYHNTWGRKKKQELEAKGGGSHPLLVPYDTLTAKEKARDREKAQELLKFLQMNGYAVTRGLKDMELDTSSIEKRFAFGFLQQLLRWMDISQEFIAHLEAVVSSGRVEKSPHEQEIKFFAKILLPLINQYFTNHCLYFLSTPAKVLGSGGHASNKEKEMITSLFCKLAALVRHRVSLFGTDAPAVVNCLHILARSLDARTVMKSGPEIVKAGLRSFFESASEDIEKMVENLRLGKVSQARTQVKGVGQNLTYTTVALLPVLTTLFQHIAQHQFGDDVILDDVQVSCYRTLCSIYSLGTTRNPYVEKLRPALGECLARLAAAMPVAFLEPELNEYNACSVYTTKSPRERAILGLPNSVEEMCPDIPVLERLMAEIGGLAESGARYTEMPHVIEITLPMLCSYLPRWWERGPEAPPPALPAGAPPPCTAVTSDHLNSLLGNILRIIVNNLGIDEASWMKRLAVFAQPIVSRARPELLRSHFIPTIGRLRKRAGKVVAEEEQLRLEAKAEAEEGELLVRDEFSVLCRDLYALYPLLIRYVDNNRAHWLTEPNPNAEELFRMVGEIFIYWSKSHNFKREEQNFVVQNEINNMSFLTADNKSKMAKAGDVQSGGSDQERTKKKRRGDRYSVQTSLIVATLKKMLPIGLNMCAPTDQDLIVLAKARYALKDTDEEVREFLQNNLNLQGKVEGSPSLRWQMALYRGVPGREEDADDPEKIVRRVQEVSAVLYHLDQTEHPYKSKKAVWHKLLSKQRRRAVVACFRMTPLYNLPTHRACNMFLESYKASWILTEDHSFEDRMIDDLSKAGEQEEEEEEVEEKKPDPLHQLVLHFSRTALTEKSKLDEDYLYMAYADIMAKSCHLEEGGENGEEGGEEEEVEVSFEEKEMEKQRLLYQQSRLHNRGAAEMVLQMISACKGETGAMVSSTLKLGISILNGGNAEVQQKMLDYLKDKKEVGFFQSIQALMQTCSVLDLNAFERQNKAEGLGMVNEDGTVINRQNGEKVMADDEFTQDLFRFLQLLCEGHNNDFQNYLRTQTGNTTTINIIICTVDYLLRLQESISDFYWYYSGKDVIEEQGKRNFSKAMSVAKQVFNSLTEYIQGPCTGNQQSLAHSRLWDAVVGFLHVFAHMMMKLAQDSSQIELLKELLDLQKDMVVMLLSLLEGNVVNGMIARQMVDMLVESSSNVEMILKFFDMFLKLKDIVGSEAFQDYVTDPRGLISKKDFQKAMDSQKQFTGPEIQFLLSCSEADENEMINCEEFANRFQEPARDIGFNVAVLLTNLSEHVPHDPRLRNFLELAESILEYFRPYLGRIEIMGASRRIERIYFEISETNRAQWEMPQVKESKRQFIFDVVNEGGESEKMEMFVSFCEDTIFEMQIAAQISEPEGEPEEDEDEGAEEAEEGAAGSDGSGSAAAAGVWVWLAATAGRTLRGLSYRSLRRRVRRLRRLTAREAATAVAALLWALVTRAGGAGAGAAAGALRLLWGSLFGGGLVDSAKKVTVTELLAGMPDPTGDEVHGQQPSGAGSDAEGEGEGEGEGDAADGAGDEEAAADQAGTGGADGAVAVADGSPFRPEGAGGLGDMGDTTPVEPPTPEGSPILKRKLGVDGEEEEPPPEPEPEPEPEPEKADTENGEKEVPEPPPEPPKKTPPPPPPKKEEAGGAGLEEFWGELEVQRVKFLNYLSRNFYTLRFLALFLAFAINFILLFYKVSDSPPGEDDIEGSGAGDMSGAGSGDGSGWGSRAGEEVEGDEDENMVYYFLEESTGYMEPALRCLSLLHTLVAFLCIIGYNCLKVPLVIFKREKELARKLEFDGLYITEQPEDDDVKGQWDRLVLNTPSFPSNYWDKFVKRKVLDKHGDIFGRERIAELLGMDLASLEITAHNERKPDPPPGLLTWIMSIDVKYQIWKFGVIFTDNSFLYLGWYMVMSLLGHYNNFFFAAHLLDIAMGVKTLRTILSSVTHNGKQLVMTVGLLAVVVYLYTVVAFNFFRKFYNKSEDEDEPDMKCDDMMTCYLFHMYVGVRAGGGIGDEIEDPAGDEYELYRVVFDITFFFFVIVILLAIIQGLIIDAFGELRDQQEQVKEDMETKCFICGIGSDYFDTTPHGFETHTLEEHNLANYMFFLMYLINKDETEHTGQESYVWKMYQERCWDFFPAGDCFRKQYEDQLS

B1: GST-tagged S100A1 (natural protein)
chain: MGSELESAMETLINVFHAHSGQEGDKYKLSKKELKDLLQTELSGFLDVQKDADAVDKVMKELDENGDGEVDFKEYVVLVAALTVACNNFFWETS
With B1, the binding result in data set [1] is recorded as “binds”.

B2: recombinant mouse S100A1 (untagged) (natural protein)
chain: B1 chain
B2: the binding result in data set [2] is “binds”. Also, the stoichiometry N (in general, a count of units in the complex or per binding partner) in “cryo-EM structure” came out at 2.
